From article PMC9352680, “A comprehensive thermodynamic model for RNA binding by the Saccharomyces cerevisiae Pumilio protein PUF4”

Biological target: T1, PUF4 RNA-binding domain (Saccharomyces cerevisiae, UniProt P25339 537-888)
T1 sequence: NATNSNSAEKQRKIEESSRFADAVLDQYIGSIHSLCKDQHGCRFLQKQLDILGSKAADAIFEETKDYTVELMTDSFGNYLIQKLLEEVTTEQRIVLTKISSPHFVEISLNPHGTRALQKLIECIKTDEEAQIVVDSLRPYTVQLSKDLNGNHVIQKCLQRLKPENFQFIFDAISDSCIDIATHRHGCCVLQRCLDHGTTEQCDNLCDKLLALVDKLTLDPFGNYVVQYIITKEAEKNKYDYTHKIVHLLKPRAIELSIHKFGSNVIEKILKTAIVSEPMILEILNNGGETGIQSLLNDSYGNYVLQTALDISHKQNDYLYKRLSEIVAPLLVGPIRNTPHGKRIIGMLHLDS
Test: Mg; RNA-MaP; 20 mM Na-HEPES pH 7.4, 30 mM KOAc, 0.75 mM MgCl2, 0.1% Tween-20, 5% glycerol, 0.1 mg/mL BSA, 2 mM DTT; 25 C; 0.0125-409.6 nM protein
Conditions: tags: N-His6-TEV cleaved; C-SNAP kept, Cy3B-labelled; label: tethered on chip by stalled RNA polymerase

UCUCUUUGUACAAUCUCUCUU (ssRNA) [Ic_S1_P4E.1_K4.1_C4.1_H4.1_A4.1_[T5C]_[T7A]_F4.1_[A9C]_T4.1]
Kd: 16.7 nM

UCUCUUUGUAAGCCAUCUCUU (ssRNA) [Ic_S1_P4E.1_K4.1_C4.1_H4.1_A4.1_[T5A]_[A6G]_[T7C]_F4.1_[T8C]_T4.1]
Kd: 515 nM

UCUCUUUGUACAUGGUCUCUU (ssRNA) [Ic_S1_P4E.1_K4.1_C4.1_H4.1_A4.1_[T5C]_F4.1_[T8G]_[A9G]_T4.1]
Kd: 59.6 nM

UCUCUUUGUAACGCUUCUCUU (ssRNA) [Ic_S1_P4E.1_K4.1_C4.1_H4.1_A4.1_[T5A]_[A6C]_[T7G]_F4.1_[T8C]_[A9T]_T4.1]
Kd: 581 nM

UCUCUUUGUACAUCUUCUCUU (ssRNA) [Ic_S1_P4E.1_K4.1_C4.1_H4.1_A4.1_[T5C]_F4.1_[T8C]_[A9T]_T4.1]
Kd: 21.1 nM

UCUCUUUGUACAACCUCUCUU (ssRNA) [Ic_S1_P4E.1_K4.1_C4.1_H4.1_A4.1_[T5C]_[T7A]_F4.1_[T8C]_[A9C]_T4.1]
Kd: 81 nM

UCUCUUUGUAACUAUUCUCUU (ssRNA) [Ic_S1_P4E.1_K4.1_C4.1_H4.1_A4.1_[T5A]_[A6C]_F4.1_[T8A]_[A9T]_T4.1]
Kd: 93.1 nM

UCUCUUUGUAACCAUUCUCUU (ssRNA) [Ic_S1_P4E.1_K4.1_C4.1_H4.1_A4.1_[T5A]_[A6C]_[T7C]_F4.1_[T8A]_[A9T]_T4.1]
Kd: 548 nM

UCUCUUUGUACAAACUCUCUU (ssRNA) [Ic_S1_P4E.1_K4.1_C4.1_H4.1_A4.1_[T5C]_[T7A]_F4.1_[T8A]_[A9C]_T4.1]
Kd: 142 nM

UCUCUUUCUAUAUUUCUCUU (ssRNA) [Ib_S1_P3E.1_K3.1_C3.1_H3.1_[G2C]_A3.1_F3.1_[A8T]_T3.1]
Kd: > 2300 nM

UCUCUUUGUAACCCCUCUCUU (ssRNA) [Ic_S1_P4E.1_K4.1_C4.1_H4.1_A4.1_[T5A]_[A6C]_[T7C]_F4.1_[T8C]_[A9C]_T4.1]
Kd: 1700 nM

UCUCUUUGUAACGUGUCUCUU (ssRNA) [Ic_S1_P4E.1_K4.1_C4.1_H4.1_A4.1_[T5A]_[A6C]_[T7G]_F4.1_[A9G]_T4.1]
Kd: 758 nM

UCUCUUUGUAACUCAUCUCUU (ssRNA) [Ic_S1_P4E.1_K4.1_C4.1_H4.1_A4.1_[T5A]_[A6C]_F4.1_[T8C]_T4.1]
Kd: 374 nM

UCUCUUUGUAACCGAUCUCUU (ssRNA) [Ic_S1_P4E.1_K4.1_C4.1_H4.1_A4.1_[T5A]_[A6C]_[T7C]_F4.1_[T8G]_T4.1]
Kd: > 2300 nM

UCUCUUUGUAAGCCCUCUCUU (ssRNA) [Ic_S1_P4E.1_K4.1_C4.1_H4.1_A4.1_[T5A]_[A6G]_[T7C]_F4.1_[T8C]_[A9C]_T4.1]
Kd: 2290 nM

UCUCUUUGUACAACUUCUCUU (ssRNA) [Ic_S1_P4E.1_K4.1_C4.1_H4.1_A4.1_[T5C]_[T7A]_F4.1_[T8C]_[A9T]_T4.1]
Kd: 33.9 nM

UCUCUUUGUAAGCUAUCUCUU (ssRNA) [Ic_S1_P4E.1_K4.1_C4.1_H4.1_A4.1_[T5A]_[A6G]_[T7C]_F4.1_T4.1]
Kd: 26.5 nM

UCUCUUUGUAACUACUCUCUU (ssRNA) [Ic_S1_P4E.1_K4.1_C4.1_H4.1_A4.1_[T5A]_[A6C]_F4.1_[T8A]_[A9C]_T4.1]
Kd: 422 nM

UCUCUUUGUAACAUGUCUCUU (ssRNA) [Ic_S1_P4E.1_K4.1_C4.1_H4.1_A4.1_[T5A]_[A6C]_[T7A]_F4.1_[A9G]_T4.1]
Kd: 12 nM

UCUCUUUGUAACGUAUCUCUU (ssRNA) [Ic_S1_P4E.1_K4.1_C4.1_H4.1_A4.1_[T5A]_[A6C]_[T7G]_F4.1_T4.1]
Kd: 17.3 nM

UCUCUUUGUAACAACUCUCUU (ssRNA) [Ic_S1_P4E.1_K4.1_C4.1_H4.1_A4.1_[T5A]_[A6C]_[T7A]_F4.1_[T8A]_[A9C]_T4.1]
Kd: 580 nM

UCUCUUUUUAUAUCUCUCUU (ssRNA) [Ib_S1_P3E.1_K3.1_C3.1_H3.1_[G2T]_A3.1_F3.1_[A8C]_T3.1]
Kd: > 2300 nM

UCUCUUUGUAACGAUUCUCUU (ssRNA) [Ic_S1_P4E.1_K4.1_C4.1_H4.1_A4.1_[T5A]_[A6C]_[T7G]_F4.1_[T8A]_[A9T]_T4.1]
Kd: 884 nM

UCUCUUUGUAACAAUUCUCUU (ssRNA) [Ic_S1_P4E.1_K4.1_C4.1_H4.1_A4.1_[T5A]_[A6C]_[T7A]_F4.1_[T8A]_[A9T]_T4.1]
Kd: 102 nM

UCUCUUUGUACAUGUUCUCUU (ssRNA) [Ic_S1_P4E.1_K4.1_C4.1_H4.1_A4.1_[T5C]_F4.1_[T8G]_[A9T]_T4.1]
Kd: 20.9 nM

UCUCUUUGUACAACGUCUCUU (ssRNA) [Ic_S1_P4E.1_K4.1_C4.1_H4.1_A4.1_[T5C]_[T7A]_F4.1_[T8C]_[A9G]_T4.1]
Kd: 92.3 nM

UCUCUUUGUAAGCACUCUCUU (ssRNA) [Ic_S1_P4E.1_K4.1_C4.1_H4.1_A4.1_[T5A]_[A6G]_[T7C]_F4.1_[T8A]_[A9C]_T4.1]
Kd: 1880 nM

UCUCUUUGUACAAAAUCUCUU (ssRNA) [Ic_S1_P4E.1_K4.1_C4.1_H4.1_A4.1_[T5C]_[T7A]_F4.1_[T8A]_T4.1]
Kd: 34.1 nM

UCUCUUUGUAACGUCUCUCUU (ssRNA) [Ic_S1_P4E.1_K4.1_C4.1_H4.1_A4.1_[T5A]_[A6C]_[T7G]_F4.1_[A9C]_T4.1]
Kd: 789 nM

UCUCUUUAUAUAUUUCUCUU (ssRNA) [Ib_S1_P3E.1_K3.1_C3.1_H3.1_[G2A]_A3.1_F3.1_[A8T]_T3.1]
Kd: 696 nM

UCUCUUUGUACAAAUUCUCUU (ssRNA) [Ic_S1_P4E.1_K4.1_C4.1_H4.1_A4.1_[T5C]_[T7A]_F4.1_[T8A]_[A9T]_T4.1]
Kd: 125 nM

UCUCUUUGCAUAUCUCUCUU (ssRNA) [Ib_S1_P3E.1_K3.1_C3.1_H3.1_[T3C]_A3.1_F3.1_[A8C]_T3.1]
Kd: > 2300 nM

UCUCUUUGUAACCUGUCUCUU (ssRNA) [Ic_S1_P4E.1_K4.1_C4.1_H4.1_A4.1_[T5A]_[A6C]_[T7C]_F4.1_[A9G]_T4.1]
Kd: 61 nM
